The values below come from PMC4529235.

For assay [1], the target named is trimeric ASIC1a concatemeric fusion protein 3_(ASIC)FP (H8-(hA1a-N1Q7)2-hA1a) (human) (UniProt P78348). The assay is described as follows: cross-linking; oxidation with 0.3 mM NaTT (20 min, 4°C) of Ni-NTA affinity-purified fractions from Xenopus oocytes and CHO cells, on the beads; non-reducing SDS-PAGE, anti-ASIC1a western blot. Background: In western blotting, separated proteins are transferred to a membrane and probed.

The target is the same in assay [2]. Put plainly: cross-linking; BMOE (0.5 or 2 mM) at the cell surface of Xenopus oocytes and CHO cells before lysis, cell-surface biotinylated fractions, SDS-PAGE under reducing conditions, anti-ASIC1a western blot; band intensities pooled over oocytes and CHO cells.

In the case of “single ASIC1a subunit available in cells expressing 3_(ASIC)FP”, the percent of ASIC1a that migrates as the tetramer in assay [1] and in assay [2] was above 60% in each case.
